Experiments:
[1] = biological target: T1, ZIKV E protein (Zika virus, UniProt Q32ZE1 291-694); test: ELISA
T1 construct: domain: envelope protein (E protein); also called Zika virus envelope protein; recombinant ZIKV E protein

[2] = biological target: T2, ZIKV EDIII (Zika virus, UniProt A0A024B7W1 599-693); test: ELISA
T2 construct: also called domain III of ZIKV E protein; DIII ZI

B1: ZKA230-Fab (Fab, V domains shown)
VH: QVQLQESGPGLVKPSETLSLTCAVSGGSISSDYWSWIRQPPGKGLEWIGYIYYSGSTNYNPSLKSRVTISVDTSKNHFSLKLNSVTAADTAVYYCARRRKYDSLWGSFAFDIWGQGTMVTVSS
VL: QSVLTQPPSASGTPGQRVTISCSGSSSNIGGNYVYWYQQLPGTAPKLLICINDHRPSGVPDRFSGSKSGTSASLAISGLQSEDEADYYCATWDDSLGGLVFGGGTKLTVL
notes: also called Fab of ZKA230
Which results are given for B1?
binding result [1]: no binding (tested: 10 nM); binding result [2]: no binding (tested: 10 nM)

Reference: patent publication US20200317755A1 (HUMABS BIOMED, published 2020)
